From patent publication US20100184837A1

What was measured:
[1] = molecular target: natural HCV acceptors on human liver cancer cells Huh 7.5.1; experiment: flow cytometry, binding to Huh 7.5.1 cells (FIG. 6), control protein
[2] = molecular target: natural HCV acceptors on human liver cancer cells Huh 7.5.1; experiment: flow cytometry, binding to Huh 7.5.1 cells (FIG. 6), no aptamer
[3] = molecular target: natural HCV acceptors on human liver cancer cells Huh 7.5.1; experiment: flow cytometry, binding to Huh 7.5.1 cells (FIG. 6), with a single DNA aptamer present as competitor
[4] = molecular target: natural HCV acceptors on human liver cancer cells Huh 7.5.1; experiment: flow cytometry, binding to Huh 7.5.1 cells (FIG. 6), with the thirteenth-round DNA aptamer library present as competitor

| binding rate [1] [%] | Substance | binding rate [2] [%] | binding rate [3] [%] | binding rate [4] [%] |
| --- | --- | --- | --- | --- |
| 1 | protein GST | – | – | – |
| – | GST-E2 | 36.7 | 15.4 | 23.2 |
